Test results taken from patent publication US8221993, “Methods of detecting methyl transferase activity and methods of screening for methyl transferase activity modulators” (Onco Therapy Science, Inc.).

T1: ZNFN3A1 (SMYD3) (Homo sapiens, UniProt Q9H7B4 SEQ:1-428)
T1 chain: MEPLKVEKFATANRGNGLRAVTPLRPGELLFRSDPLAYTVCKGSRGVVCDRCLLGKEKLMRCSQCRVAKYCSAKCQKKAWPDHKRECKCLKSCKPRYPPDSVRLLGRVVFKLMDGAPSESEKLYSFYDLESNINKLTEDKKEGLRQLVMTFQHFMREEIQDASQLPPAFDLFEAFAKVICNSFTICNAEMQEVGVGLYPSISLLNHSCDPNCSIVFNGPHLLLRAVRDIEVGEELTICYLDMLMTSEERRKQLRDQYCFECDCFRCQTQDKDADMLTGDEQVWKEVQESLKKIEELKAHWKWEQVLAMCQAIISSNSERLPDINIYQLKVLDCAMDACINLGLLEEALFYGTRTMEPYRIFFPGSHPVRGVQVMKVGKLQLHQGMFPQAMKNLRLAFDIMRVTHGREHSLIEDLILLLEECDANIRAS


Columns and labels:
Tcf4 wild-type = Tcf4 wild-type (UniProt Q9NQB0 Q9NQB0:1-619); experiment: positive control; conditions: tags: GST fusion
ZNFN3A1 (SMYD3) [1] = molecular target: T1, ZNFN3A1 (SMYD3); experiment: specificity control; conditions: tags: GST fusion, E. coli
GST = GST (UniProt P08515 P08515:1-218); experiment: GST control
ZNFN3A1 (SMYD3) [2] = molecular target: T1, ZNFN3A1 (SMYD3); experiment: in vitro binding assay; inhibited by cold competitor DNA; conditions: tags: GST fusion, E. coli

Chain of GST (P08515 whole entry, the tested form may be a part, one chain of several): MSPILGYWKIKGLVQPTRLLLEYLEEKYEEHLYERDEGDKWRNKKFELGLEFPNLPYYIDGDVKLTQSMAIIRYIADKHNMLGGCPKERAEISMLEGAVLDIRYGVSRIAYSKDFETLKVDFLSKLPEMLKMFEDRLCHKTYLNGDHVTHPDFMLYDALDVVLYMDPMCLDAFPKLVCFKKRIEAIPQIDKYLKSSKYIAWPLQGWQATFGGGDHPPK
Chain of Tcf4 wild-type (Q9NQB0 whole entry, the tested form may be a part, one chain of several): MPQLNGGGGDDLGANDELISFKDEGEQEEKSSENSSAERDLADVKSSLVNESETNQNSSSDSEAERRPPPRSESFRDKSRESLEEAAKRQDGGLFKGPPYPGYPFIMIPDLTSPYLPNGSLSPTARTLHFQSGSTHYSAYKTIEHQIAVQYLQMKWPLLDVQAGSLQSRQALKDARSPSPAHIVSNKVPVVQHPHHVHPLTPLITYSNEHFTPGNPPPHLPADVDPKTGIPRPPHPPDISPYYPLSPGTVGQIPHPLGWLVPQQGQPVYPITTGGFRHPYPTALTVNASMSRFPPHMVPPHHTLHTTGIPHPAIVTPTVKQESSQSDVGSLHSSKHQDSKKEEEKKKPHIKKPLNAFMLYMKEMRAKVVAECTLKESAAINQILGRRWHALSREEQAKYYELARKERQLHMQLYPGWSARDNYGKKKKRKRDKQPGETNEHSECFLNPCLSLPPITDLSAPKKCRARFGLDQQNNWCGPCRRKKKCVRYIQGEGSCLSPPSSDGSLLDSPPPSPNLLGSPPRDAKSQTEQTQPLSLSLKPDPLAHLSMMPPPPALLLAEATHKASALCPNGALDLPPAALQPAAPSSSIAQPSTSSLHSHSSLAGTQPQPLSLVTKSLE

Row | Binder | binding result (Tcf4 wild-type) | binding result (ZNFN3A1 (SMYD3) [1]) | binding result (GST) | binding result (ZNFN3A1 (SMYD3) [2])
1 | wtTBM (Tcf4-binding motif) (dsDNA) DNA 1: CCCTTTGATCTTACC DNA 2: GGTAAGATCAAAGGG | binds | no binding | no binding | 
2 | ZBE2 (Nkx2.8 ZNFN3A1-binding element) (dsDNA) DNA 1: TTACGCCCTCCTGAAACTTGTCATCCTGAATCTTAGAGGGGCCC DNA 2: GGGCCCCTCTAAGATTCAGGATGACAAGTTTCAGGAGGGCGTAA |  |  | no binding | binds
